Substitutions are numbered along the chain they refer to. In names and notes the source's numbering stands. Entries after “also recorded” stand apart in the source; their conditions may differ. Each block holds one molecule with its values, some of them ahead of it.
Legend:
LRP6 E1E4 = target: T1, LRP6 E1E4 (Homo sapiens, UniProt O75581); assay: Biolayer interferometry binding to LRP6 E1E4
T1 construct: construct E1E4-amino acids A20-Q1253 of LPR6; made in house; host or cells: Tni insect cells (baculovirus, secreted)
T1 sequence (O75581 20-1253): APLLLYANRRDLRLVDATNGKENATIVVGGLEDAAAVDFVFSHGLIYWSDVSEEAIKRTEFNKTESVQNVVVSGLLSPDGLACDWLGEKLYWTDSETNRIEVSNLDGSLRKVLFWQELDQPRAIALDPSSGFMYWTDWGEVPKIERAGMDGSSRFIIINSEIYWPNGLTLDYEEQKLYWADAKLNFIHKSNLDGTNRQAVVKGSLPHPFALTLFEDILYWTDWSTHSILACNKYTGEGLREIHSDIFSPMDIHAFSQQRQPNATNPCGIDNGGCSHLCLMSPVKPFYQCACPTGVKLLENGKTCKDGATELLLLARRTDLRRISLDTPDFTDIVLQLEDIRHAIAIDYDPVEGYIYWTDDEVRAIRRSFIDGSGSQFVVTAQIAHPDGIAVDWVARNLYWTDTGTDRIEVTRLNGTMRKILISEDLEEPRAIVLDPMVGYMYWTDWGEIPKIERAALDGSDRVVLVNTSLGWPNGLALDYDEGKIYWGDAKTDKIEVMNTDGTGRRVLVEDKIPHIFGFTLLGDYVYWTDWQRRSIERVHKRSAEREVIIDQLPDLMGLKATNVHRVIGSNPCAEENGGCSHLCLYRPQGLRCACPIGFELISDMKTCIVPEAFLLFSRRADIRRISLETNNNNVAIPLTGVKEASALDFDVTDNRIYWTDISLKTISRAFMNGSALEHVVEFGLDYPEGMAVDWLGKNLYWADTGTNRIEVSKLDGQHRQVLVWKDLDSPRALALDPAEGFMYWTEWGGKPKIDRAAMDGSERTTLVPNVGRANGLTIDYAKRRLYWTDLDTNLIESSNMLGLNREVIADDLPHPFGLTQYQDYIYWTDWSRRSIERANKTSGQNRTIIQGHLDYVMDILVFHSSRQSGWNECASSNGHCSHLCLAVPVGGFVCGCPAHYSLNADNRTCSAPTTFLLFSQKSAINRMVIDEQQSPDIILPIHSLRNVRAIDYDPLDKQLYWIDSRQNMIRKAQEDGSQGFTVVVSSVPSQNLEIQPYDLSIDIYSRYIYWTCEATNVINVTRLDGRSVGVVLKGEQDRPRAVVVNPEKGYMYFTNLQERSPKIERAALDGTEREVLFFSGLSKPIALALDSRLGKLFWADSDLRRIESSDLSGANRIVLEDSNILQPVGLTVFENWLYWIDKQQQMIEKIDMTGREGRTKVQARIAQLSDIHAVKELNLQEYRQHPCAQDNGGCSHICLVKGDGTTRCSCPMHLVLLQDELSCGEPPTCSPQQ
Experimental: Binding kinetics were measured by biolayer interferometry using an Octet Red instrument (ForteBio) as previously described (11). Streptavidin (SA) biosensors were loaded with biotinylated hLRP6 in 50 mMTris, pH 8, 300 mM NaCl, 5% (v/v) glycerol, and 0.05% (w/v) Triton X-100. The loaded biosensors were washed in the same buffer before carrying out association and dissociation measurements for the indicated times. The Kd of each interaction was determined using steady state-analysis through the Octet Red software v6.3. Each reported value represents an average of three or more experiments at different concentrations, with a fitted experimental curve for which the square of the correlation coefficient (R^2) is above 0.96.
The interaction of the different Dkks and sclerostin with various domains of LRP6 was measured using a biolayer interferometry assay (11). Purified receptors contained individual β-propeller-EGF-like units (E1, E2, or E4), two β-propellers (E1E2 or E3E4), or four β-propellers (E1E4))—as follows:
Human LRP6: construct E1E4-amino acids A20-Q1253 of LPR6; construct E1E2-amino acids A20-E631 of LPR6; construct E3E4 amino acids E631-Q1253 of LPR6; construct E1-amino acids A20-D325 of LPR6; construct E2-amino acids […]-E631 of LPR6; construct E4-T933-Q1253. The individual LRP6 β-propeller E3 could not be expressed.

LRP6 E3E4 = target: T2, LRP6 E3E4 (Homo sapiens, UniProt O75581); assay: Biolayer interferometry binding to LRP6 E3E4
T2 construct: construct E3E4 amino acids E631-Q1253 of LPR6; made in house; host or cells: Tni insect cells (baculovirus, secreted)
T2 sequence (O75581 631-1253): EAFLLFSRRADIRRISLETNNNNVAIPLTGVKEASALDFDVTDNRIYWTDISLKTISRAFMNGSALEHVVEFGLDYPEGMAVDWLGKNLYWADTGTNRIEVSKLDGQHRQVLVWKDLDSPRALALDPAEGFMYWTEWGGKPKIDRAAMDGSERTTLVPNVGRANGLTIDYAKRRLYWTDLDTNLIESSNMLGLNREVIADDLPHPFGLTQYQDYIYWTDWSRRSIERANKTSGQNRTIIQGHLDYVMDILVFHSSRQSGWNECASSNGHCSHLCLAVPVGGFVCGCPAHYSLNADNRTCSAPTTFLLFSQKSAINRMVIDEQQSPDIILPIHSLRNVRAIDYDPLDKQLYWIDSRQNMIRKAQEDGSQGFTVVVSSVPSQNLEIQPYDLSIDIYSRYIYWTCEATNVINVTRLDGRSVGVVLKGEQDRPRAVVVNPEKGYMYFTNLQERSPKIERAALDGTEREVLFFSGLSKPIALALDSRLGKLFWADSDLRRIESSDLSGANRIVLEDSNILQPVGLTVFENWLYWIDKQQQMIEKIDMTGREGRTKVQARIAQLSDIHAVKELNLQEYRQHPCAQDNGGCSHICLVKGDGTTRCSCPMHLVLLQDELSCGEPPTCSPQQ
How it was run: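 Biotinylated human LRP6 ectodomain constructs (β-propeller-EGF units, e.g. E2 D235–E631, E1E2 A20–E631, E3E4 E631–Q1253) were loaded on streptavidin sensors in pH 8 Tris, 300 mM NaCl, 5% glycerol, 0.05% Triton X-100, then exposed to Dkks or sclerostin. Kd came from steady-state analysis, averaging ≥3 concentrations (R²>0.96).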

binding to LRP6 E1E4 (in words) (LRP6 E1E4): binds
binding to LRP6 E3E4 (in words) (LRP6 E3E4): does not interact
Molecule: sclerostin: Sclerostin protein, Wnt pathway inhibitor, expressed in insect cells (LPNAIGR)

Kd (LRP6 E3E4; steady state, read-out: affinity for LRP6 E3E4): 51 nM
Molecule: Dkk1: Dickkopf 1 protein, Wnt pathway inhibitor, expressed in insect cells (NSNAIKN)

binding to LRP6 E1E4 (in words) (LRP6 E1E4): retain binding
binding to LRP6 E3E4 (in words) (LRP6 E3E4): not to E3E4
B1: Dkk1 Ile42Glu (ligand, human, UniProt O94907 32-266, looked up)
chain: TLNSVLNSNAEKNLPPPLGGAAGHPGSAVSAAPGILYPGGNKYQTIDNYQPYPCAEDEECGTDEYCASPTRGGDAGVQICLACRKRRKRCMRHAMCCPGNYCKNGICVSSDQNHFRGEIEETITESFGNDHSTLDGYSRRTTLSSKMYHTKGQEGSVCLRSSDCASGLCCARHFWSKICKPVLKEGQVCTKHRRKGSHGLEIFQRCYCGEGLSCRIQKDHHQASNSSRLHTCQRH
notes: also called Dkk1 I42E

binding to LRP6 E1E4 (in words) (LRP6 E1E4): retain binding
B2: Dkk1 K211E (ligand, human, UniProt O94907 32-266, looked up)
chain: B1 chain with E11I, K180E
notes: also called Dkk1 Lys211Glu
binding to LRP6 E3E4 (in words) (LRP6 E3E4): interfered with binding; also recorded: affect binding

From patent US20140235820A1, “METHODS AND COMPOSITIONS FOR MODULATING THE Wnt PATHWAY” (Genentech, Inc., priority 2010, published 2014)
